# Measurements: patent publication US20250000989A1 (JIANGSU HENGRUI PHARMACEUTICALS, published 2025)
# B1: ADC-22 (antibody, human IgG1, kappa, V domains shown)
# VH: EVQLVQSGAEVKKPGASVKVSCKASGYTFTSYWMHWVRQAPGQRLEWMGMIHPNSGSTNYNEKFKGRVTITRDTSASTAYMELSSLRSEDTAVYYCARLKTGNSFDYWGQGTTVTVSS
# VL: DIVLTQSPDSLAVSLGERATINCKSSQSLLNSGNQKNYLTWYQQKPGQPPKLLIYWASTRESGVPDRFSGSGSGTDFTLTISSLQAEDVAVYYCQNAYTYPFTFGQGTKLEIKR
# modifications: Asn at position 297 (Eu numbering) carries the remodeled N297 glycan chain from OLS-4, conjugated to the PBD drug linker LD-11; average drug loading y=1.96
# B2: ADC-20 (antibody, human IgG1, kappa, V domains shown)
# VH: QVQLVQSGGGLVQPGRSLRLSCAASGFTFDDYAMHWVRQAPGKGLEWVSGISWNSGSIGYADSVKGRFTISRDNAKNSLYLQMNSLRAEDTALYYCAKEGLPGLDYWGQGTLVTVSS
# VL: DIQMTQSPSSLSASIGDRATITCRASQHVGTYLNWYQQKPGKTPKLLISGAANLQSGVPSRFSGSGSGTDFTLTISSLQPEDFATYYCQQSYNTPPFSFGQGTKVEIKR
# modifications: Asn at position 297 (Eu numbering) carries the remodeled N297 glycan chain from OLS-4, conjugated to the PBD drug linker LD-11; average drug loading y=1.98
# Tests used:
# [1] = target: human Claudin18.2 (human); test: cell-based or functional assay
# [2] = target: HER3 (UniProt P21860 20-1342, limits assumed); test: cell-based or functional assay
Binder,"EC50 (nM), in vitro killing (CTG cell viability) of cells highly expressing NUGC4-claudin18.2 [1] [nM]","EC50 (nM), in vitro killing (CTG cell viability) of cells lowly expressing NUGC4-claudin18.2 [1] [nM]","EC50 (nM), in vitro killing (CTG cell viability) of cells moderately expressing NUGC4-claudin18.2 [1] [nM]","EC50 (nM), killing effect (CTG) on FaDu++ [2] [nM]","EC50 (nM), killing effect (CTG) on MCF7++++ [2] [nM]","EC50 (nM), killing effect (CTG) on SW620+++ [2] [nM]"
B1,2.1,11.7,9.8,,,
B2,,,,39.9,114,29.3
